Reference: the supplement of paper PMC10126150
± gives the standard deviation of the averaged measurements.

Tested on: ATP
Test: switch fluorescence ratio, 500 uM ATP over buffer (Cy3 cluster intensity, sum of 5 cycles each) (fold (ratio)); higher = stronger signal-on switching upon ATP binding; sequences stand for … in TCGTCGGCAGCGTCAGATGTGTATAAGAGACAGTTTTTTTTTTTTTTTTTTTTTTTTT…TC
Conditions: aptamer strand: ATP DNA aptamer (quencher-CACCTGGGGGAGTATTGCGGAGGAAGG + anchor), 100 nM annealed; ATP concentration: 500 uM
In short: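 Cy3-labelled switching-strand clusters on a modified Illumina MiSeq flow-cell were annealed to 100 nM quencher-labelled ATP aptamer and imaged first in selection buffer, then after 15 min with 500 uM ATP at 22 °C. NaOH stripping and re-annealing separated each of five buffer/ATP cycles, and clusters outside 100-1000 RFU were excluded. The fluorescence ratio sums target-cycle Cy3 intensity over buffer-cycle Cy3 intensity per cluster and averages it per switch-domain sequence.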
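Further: ATP exposure 15 min at 22 °C before imaging.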

For TCATTCTGGG, the switch fluorescence ratio was 1.008 ± 0.0097.
TCATTGAAGT showed a switch fluorescence ratio of 0.991 ± 0.008.
In the case of TCATTGATCG, the switch fluorescence ratio is reported as 0.987 ± 0.011.
Work on TCATTGATTG yielded a switch fluorescence ratio of 0.999 ± 0.022.
For TCATTGGGGT, the switch fluorescence ratio was 0.957 ± 0.033.
With TCATTGGGTT the switch fluorescence ratio was 0.977 ± 0.026.
For TCATTGGTAG, the switch fluorescence ratio was 1.001 ± 0.0054.
TCATTGGTT showed a switch fluorescence ratio of 0.985 ± 0.021.
TCATTGTTAT showed a switch fluorescence ratio of 0.999 ± 0.036.
TCATTTAAGA gave a switch fluorescence ratio of 0.954 ± 0.014.
With TCATTTAGGG the switch fluorescence ratio was 0.9893 ± 0.0081.
TCATTTATCA showed a switch fluorescence ratio of 1 ± 0.053.
In the case of TCATTTATGG, the switch fluorescence ratio is reported as 0.999 ± 0.023.
TCATTTATTA gave a switch fluorescence ratio of 1.04 ± 0.023.
In the case of TCATTTATTT, the switch fluorescence ratio is reported as 0.98 ± 0.015.
TCATTTCCGG showed a switch fluorescence ratio of 1.046 ± 0.0072.
For TCATTTCGGC, the switch fluorescence ratio was 0.982 ± 0.032.
In the case of TCATTTCTGC, the switch fluorescence ratio is reported as 1.01 ± 0.037.
TCATTTGGAG showed a switch fluorescence ratio of 0.9816 ± 0.0076.
TCATTTGGCA gave a switch fluorescence ratio of 0.983 ± 0.01.
With TCATTTTCCG the switch fluorescence ratio was 0.996 ± 0.043.
TCATTTTGG was tested, and the switch fluorescence ratio was 0.992 ± 0.015.
TCATTTTTCT was tested, and the switch fluorescence ratio was 0.98 ± 0.021.
With TCATTTTTGG the switch fluorescence ratio was 1 ± 0.012.
For TCCAAAGATG, the switch fluorescence ratio was 0.9892 ± 0.005.
TCCAAATTTT showed a switch fluorescence ratio of 1.02 ± 0.016.
For TCCAACTGCA, the switch fluorescence ratio was 1.5 ± 0.087.
Sequence TCCAAGGGTG has a switch fluorescence ratio of 1.46 ± 0.15.
With TCCAATGATG the switch fluorescence ratio was 1.03 ± 0.018.
For TCCACGGGTA, the switch fluorescence ratio was 1.08 ± 0.068.
For TCCACTGGAT, the switch fluorescence ratio was 1.03 ± 0.013.
TCCAGACTCT gave a switch fluorescence ratio of 1.02 ± 0.011.
For TCCAGATTTT, the switch fluorescence ratio was 1 ± 0.012.
With TCCAGCCCGT the switch fluorescence ratio was 1.02 ± 0.027.
For TCCAGCTAAA, the switch fluorescence ratio was 1.09 ± 0.014.
Work on TCCAGGAGGT yielded a switch fluorescence ratio of 1.02 ± 0.033.
TCCAGGCGTA gave a switch fluorescence ratio of 1.021 ± 0.0089.
TCCAGGCTTT showed a switch fluorescence ratio of 1.05 ± 0.071.
In the case of TCCAGGGGGG, the switch fluorescence ratio is reported as 1.18 ± 0.27.
With TCCAGGGGTC the switch fluorescence ratio was 1.38 ± 0.13.
TCCAGGTGCG was tested, and the switch fluorescence ratio was 2.96 ± 0.33.
For TCCAGTCATT, the switch fluorescence ratio was 0.998 ± 0.01.
Sequence TCCAGTGGCT has a switch fluorescence ratio of 1 ± 0.017.
TCCAGTGGGA was tested, and the switch fluorescence ratio was 1.11 ± 0.087.
With TCCAGTGTCG the switch fluorescence ratio was 1.01 ± 0.056.
With TCCAGTGTTG the switch fluorescence ratio was 1.08 ± 0.071.
TCCAGTTATT was tested, and the switch fluorescence ratio was 1 ± 0.019.
Sequence TCCATACAAG has a switch fluorescence ratio of 0.983 ± 0.055.
TCCATAGTGA was tested, and the switch fluorescence ratio was 1.26 ± 0.085.
TCCATCGGGA gave a switch fluorescence ratio of 1.14 ± 0.14.
With TCCATCGGGT the switch fluorescence ratio was 1.01 ± 0.038.
In the case of TCCATGTGTT, the switch fluorescence ratio is reported as 1.01 ± 0.037.
Work on TCCATTTATC yielded a switch fluorescence ratio of 0.982 ± 0.04.
Work on TCCCATTTTG yielded a switch fluorescence ratio of 1.01 ± 0.043.
In the case of TCCCCAATAA, the switch fluorescence ratio is reported as 3.11 ± 0.39.
Work on TCCCCATGGT yielded a switch fluorescence ratio of 2.07 ± 0.068.
TCCCCCACAG gave a switch fluorescence ratio of 2.05 ± 0.22.
TCCCCGTCTG gave a switch fluorescence ratio of 1.14 ± 0.15.
TCCCCTGTCG was tested, and the switch fluorescence ratio was 1.07 ± 0.085.
Sequence TCCCCTTGCT has a switch fluorescence ratio of 1.03 ± 0.094.
For TCCCGATTGG, the switch fluorescence ratio was 0.959 ± 0.028.
TCCCGGCCTG gave a switch fluorescence ratio of 1.012 ± 0.0041.
TCCCGGGGGG gave a switch fluorescence ratio of 1.14 ± 0.26.
In the case of TCCCGGGTTA, the switch fluorescence ratio is reported as 1.01 ± 0.013.
TCCCTATCAC was tested, and the switch fluorescence ratio was 1.1 ± 0.042.
TCCCTTTGGG gave a switch fluorescence ratio of 0.971 ± 0.038.
In the case of TCCGAAACAT, the switch fluorescence ratio is reported as 1.575 ± 0.011.
Sequence TCCGAAAGGG has a switch fluorescence ratio of 1.052 ± 0.0062.
In the case of TCCGAGGGTT, the switch fluorescence ratio is reported as 1.214 ± 0.011.
For TCCGGATTTT, the switch fluorescence ratio was 1.01 ± 0.016.
TCCGGCGGAC showed a switch fluorescence ratio of 1.149 ± 0.0078.
In the case of TCCGGCGGCC, the switch fluorescence ratio is reported as 1.09 ± 0.024.
Work on TCCGGCGGTT yielded a switch fluorescence ratio of 1.01 ± 0.04.
TCCGGCGTAT was tested, and the switch fluorescence ratio was 1.131 ± 0.0055.
For TCCGGGAATT, the switch fluorescence ratio was 1.02 ± 0.021.
In the case of TCCGGGCCCA, the switch fluorescence ratio is reported as 1.038 ± 0.0023.
TCCGGTATCG showed a switch fluorescence ratio of 1.04 ± 0.016.
TCCGTAAATT was tested, and the switch fluorescence ratio was 1.14 ± 0.013.
With TCCGTGGGGG the switch fluorescence ratio was 1.09 ± 0.14.
In the case of TCCGTGTGGG, the switch fluorescence ratio is reported as 1.04 ± 0.028.
With TCCGTTGTTT the switch fluorescence ratio was 1.03 ± 0.044.
Work on TCCGTTTCGG yielded a switch fluorescence ratio of 0.997 ± 0.047.
In the case of TCCGTTTTGA, the switch fluorescence ratio is reported as 1.001 ± 0.0095.
With TCCTAAACGG the switch fluorescence ratio was 0.988 ± 0.03.
TCCTACGGGG was tested, and the switch fluorescence ratio was 1.14 ± 0.18.
TCCTAGGTGT gave a switch fluorescence ratio of 4 ± 0.28.
Work on TCCTAGTTGT yielded a switch fluorescence ratio of 0.9798 ± 0.0013.
Sequence TCCTATATAA has a switch fluorescence ratio of 1.03 ± 0.058.
Work on TCCTATTAGG yielded a switch fluorescence ratio of 0.9888 ± 0.0054.
For TCCTCATGTT, the switch fluorescence ratio was 1.07 ± 0.032.
With TCCTGGAGCG the switch fluorescence ratio was 1.08 ± 0.068.
In the case of TCCTGGATGG, the switch fluorescence ratio is reported as 0.98 ± 0.022.
For TCCTGGCTGT, the switch fluorescence ratio was 1.09 ± 0.027.
For TCCTGGCTTT, the switch fluorescence ratio was 1.26 ± 0.29.
In the case of TCCTGGTGAT, the switch fluorescence ratio is reported as 1.22 ± 0.12.
TCCTGTCTTT showed a switch fluorescence ratio of 1.01 ± 0.014.
TCCTGTGGGA was tested, and the switch fluorescence ratio was 1.007 ± 0.0053.
With TCCTTCACCT the switch fluorescence ratio was 1.24 ± 0.069.
For TCCTTGCTGT, the switch fluorescence ratio was 1.12 ± 0.095.
For TCCTTGTAAG, the switch fluorescence ratio was 1.01 ± 0.03.
Sequence TCCTTGTAGT has a switch fluorescence ratio of 1.11 ± 0.17.
In the case of TCCTTTATTG, the switch fluorescence ratio is reported as 1.01 ± 0.021.
Work on TCCTTTTAGA yielded a switch fluorescence ratio of 1.01 ± 0.011.
Sequence TCCTTTTGG has a switch fluorescence ratio of 0.996 ± 0.044.
For TCGAAATAGG, the switch fluorescence ratio was 1.005 ± 0.0023.
In the case of TCGAAATCGG, the switch fluorescence ratio is reported as 1.03 ± 0.021.
TCGAAGAAGT was tested, and the switch fluorescence ratio was 0.997 ± 0.016.
In the case of TCGAAGCCGG, the switch fluorescence ratio is reported as 0.9774 ± 0.0061.
For TCGAAGGCAT, the switch fluorescence ratio was 1.06 ± 0.03.
TCGAAGGGGT showed a switch fluorescence ratio of 0.982 ± 0.013.
With TCGAAGTCAG the switch fluorescence ratio was 1.06 ± 0.044.
TCGAATAACT gave a switch fluorescence ratio of 2.2 ± 1.7.
TCGAATATCA was tested, and the switch fluorescence ratio was 1.007 ± 0.0097.
TCGAATTTGT showed a switch fluorescence ratio of 0.99 ± 0.03.
With TCGACAAAGG the switch fluorescence ratio was 1.07 ± 0.021.
In the case of TCGACATGGT, the switch fluorescence ratio is reported as 0.995 ± 0.041.
With TCGACCATCG the switch fluorescence ratio was 0.974 ± 0.033.
In the case of TCGACCTTCT, the switch fluorescence ratio is reported as 1.77 ± 0.17.
TCGACGATTT was tested, and the switch fluorescence ratio was 1.23 ± 0.26.
With TCGACGGGGG the switch fluorescence ratio was 1.06 ± 0.081.
Work on TCGAGACAGG yielded a switch fluorescence ratio of 1 ± 0.027.
TCGAGAGTAG gave a switch fluorescence ratio of 0.948 ± 0.016.
TCGAGATGTA gave a switch fluorescence ratio of 1.03 ± 0.067.
Sequence TCGAGATTAA has a switch fluorescence ratio of 1.01 ± 0.024.
In the case of TCGAGCAGTG, the switch fluorescence ratio is reported as 1.06 ± 0.013.
TCGAGCCGAA gave a switch fluorescence ratio of 1.04 ± 0.019.
For TCGAGGAGTT, the switch fluorescence ratio was 1.012 ± 0.01.
Sequence TCGAGGCTGT has a switch fluorescence ratio of 1.18 ± 0.05.
TCGAGGGAAG showed a switch fluorescence ratio of 0.998 ± 0.023.
With TCGAGGGTCT the switch fluorescence ratio was 1.023 ± 0.0083.
TCGAGTATCG showed a switch fluorescence ratio of 1.02 ± 0.044.
TCGAGTCGGT showed a switch fluorescence ratio of 1.02 ± 0.034.
For TCGAGTTGGT, the switch fluorescence ratio was 1.01 ± 0.0018.
With TCGAGTTGTT the switch fluorescence ratio was 0.988 ± 0.021.
TCGAGTTTGC gave a switch fluorescence ratio of 0.931 ± 0.027.
For TCGATAAATG, the switch fluorescence ratio was 1.06 ± 0.033.
In the case of TCGATAATTT, the switch fluorescence ratio is reported as 0.986 ± 0.022.
TCGATCTTGG showed a switch fluorescence ratio of 0.988 ± 0.011.
For TCGATGCTAG, the switch fluorescence ratio was 1.03 ± 0.065.
TCGATGGTTT gave a switch fluorescence ratio of 1.013 ± 0.01.
TCGATTCAGT gave a switch fluorescence ratio of 0.9804 ± 0.0054.
Sequence TCGATTTGGC has a switch fluorescence ratio of 1 ± 0.045.
In the case of TCGCAGTTTC, the switch fluorescence ratio is reported as 1.7002 ± 0.00038.
With TCGCATTGGT the switch fluorescence ratio was 1.24 ± 0.037.
For TCGCCCGCGA, the switch fluorescence ratio was 1.51 ± 0.063.
Work on TCGCGAAATG yielded a switch fluorescence ratio of 0.968 ± 0.025.
TCGCGCGGGT was tested, and the switch fluorescence ratio was 0.9887 ± 0.008.
In the case of TCGCGGTTAT, the switch fluorescence ratio is reported as 1.06 ± 0.029.
TCGCGTGTTG showed a switch fluorescence ratio of 1.017 ± 0.0032.
In the case of TCGCGTTGTG, the switch fluorescence ratio is reported as 1.02 ± 0.034.
TCGCTGCGGA was tested, and the switch fluorescence ratio was 1.01 ± 0.018.
For TCGCTGCTTG, the switch fluorescence ratio was 1.065 ± 0.0074.
In the case of TCGCTTATCG, the switch fluorescence ratio is reported as 1.02 ± 0.072.
